Here are results for 16 molecules from PMC7529893, “Structural basis for substrate recognition and chemical inhibition of oncogenic MAGE ubiquitin ligases” (Nature Communications, 2020).

“And” between values parts separate entries of the source, which are not always exact repeats. Equal values may be shown once. Square brackets hold non-standard residues; d marks the D form. Ends that are not written are not given here. Peptide text beside a SMILES is read from it. Phe(4-CN) = N#Cc1ccc(C[C@H](N)C(=O)O)cc1; Phe(3-Me) = Cc1cccc(C[C@H](N)C(=O)O)c1

One assay concerns the target T1, GST-MAGE-A11 MHD (Homo sapiens, UniProt P43364).
T1 construct: GST-MAGE-A11 MHD (human MAGE-A11 MHD amino acid 218-429); made in house; host or cells: E. coli BL21(DE3)
T1 sequence (P43364 218-429): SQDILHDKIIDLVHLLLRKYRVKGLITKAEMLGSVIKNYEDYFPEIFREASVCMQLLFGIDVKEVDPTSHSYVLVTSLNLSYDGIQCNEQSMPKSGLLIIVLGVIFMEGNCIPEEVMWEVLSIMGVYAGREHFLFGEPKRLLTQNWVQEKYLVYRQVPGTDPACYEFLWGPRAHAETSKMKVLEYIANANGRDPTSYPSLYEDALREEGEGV
As to the kind of experiment: TR-FRET competition assay of PCF11 peptides against GST-MAGE-A11 MHD / FAM-PCF11_4. The settings on record: Fig. 1c, panel of eight PCF11 peptides; read-out: IC50, binding of PCF11 peptide to GST-MAGE-A11 by TR-FRET. As to the method:
The TR-FRET assay buffer with a formula of 50 mM Tris pH 7.5, 20 mM MgCl2, 0.1 mg/ml BSA and 1 mM DTT was freshly prepared before each experiment. All TR-FRET assays were performed in black 384-well plates with 20 µl/well assay volume in the TR-FRET assay buffer at room temperature (~25 °C). All peptides or compounds were solubilized in DMSO. To test the competitive activity of peptides or compounds against the interaction between GST-MAGE-A11 MHD and FAM-PCF11_4 peptide, 10 µl/well peptide or compound at specified concentration was dispensed into a black 384-well low volume plate, followed by 5 µl/well FAM-PCF11_4 (800 nM), 5 µl/well Tb-anti-GST (20 nM), and GST-MAGE-A11 MHD (20 nM). The assay components in each well was then mixed by shaking the plate on an IKA MTS 2/4 digital microtiter plate shaker (IKA Works; Wilmington, NC, USA) for 1 min. The plate was further centrifuged in an Eppendorf 5810 centrifuge with an A-4-62 swing-bucket rotor (Eppendorf AG, Hamburg, Germany) at 201 g for 30 s. The plate was then incubated for 90 min with a lid to avoid light exposure to the assay components. After incubation, the fluorescent emission signals at 520 nm and 490 nm channels of individual wells were measured with a PHERAstar FS plate reader (BMG Labtech; Durham, NC, USA) by using a 340 nm excitation filter, 100 µs delay time, and 200 µs integration time. The TR-FRET fluorescence emission ratio (TR-FRET signal) for each well was presented as 10,000 × 520 nm/490 nm, which was used directly for curve fitting, or further converted to %Inhibition based on the respective positive and negative controls. The graphic software GraphPad Prism 4.81 (GraphPad Software; La Jolla, CA, USA) was used to generate curves and derive IC50 values of tested peptides or compounds, if applicable.
TR-FRET inhibitory activity characterization of a panel of PCF11 peptides against the interaction between GST-MAGE-A11 MHD and FAM-PCF11_4 was performed as follows. In a 20-µl/well assay volume, dilutions of PCF11_1 to PCF11_8 peptides (concentrations ranged from 3.1 nM to 100 µM for peptides PCF11_4, PCF11_5, PCF11_6 and PCF11_8 in a 1-to-2 dilution pattern for 16 concentration levels, and ranged from 48.9 nM to 100 µM for peptides of PCF11_1, PCF11_2, PCF11_3, and PCF11_7 in a 1-to-2 dilution pattern for 12 concentration levels), 200 nM FAM-PCF11_4, 5 nM Tb-anti-GST and 5 nM GST-MAGE-A11 were mixed together and incubated for 90 min before the TR-FRET signal for each well was measured. The final DMSO concentration was 1.1% (v/v). […] The signal of each peptide-treated well (Signalpeptide) was normalized to the positive and negative controls to derive %inhibition of the peptide at a specific concentration with Eq. (1). Where applicable, the %Inhibition data were fit into a Sigmoidal dose response equation to derive IC50 values.1 %Inhibition=100%−100%×(Signalpeptide−SignalDMSOwithoutGST-MAGEA11)/SignalDMSO−SignalDMSOwithoutGST-MAGEA11.
On the technique in general: In TR-FRET formats the signal depends on donor and acceptor labels being close together.

Assay [1] concerns the target T2, GST-MAGE-A11 MHD (human MAGE-A11 MHD amino acid 218-429) (human, UniProt P43364 218-429).
T2 chain: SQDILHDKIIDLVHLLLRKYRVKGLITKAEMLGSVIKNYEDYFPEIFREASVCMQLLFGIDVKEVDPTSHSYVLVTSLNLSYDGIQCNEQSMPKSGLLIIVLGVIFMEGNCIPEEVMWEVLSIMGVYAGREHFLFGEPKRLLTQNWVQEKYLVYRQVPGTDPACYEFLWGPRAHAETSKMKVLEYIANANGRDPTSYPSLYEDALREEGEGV
The assay is described as follows: FRET.

The target of assay [2] is T3, GST-MAGE-A11 MHD (human MAGE-A11 MHD amino acid 218-429) (human, UniProt P43364 218-429).
T3 construct: also called recombinant GST-MAGE-A11; source: E. coli BL21(DE3), purified (GSTrap, Resource Q)
T3 sequence (looked up): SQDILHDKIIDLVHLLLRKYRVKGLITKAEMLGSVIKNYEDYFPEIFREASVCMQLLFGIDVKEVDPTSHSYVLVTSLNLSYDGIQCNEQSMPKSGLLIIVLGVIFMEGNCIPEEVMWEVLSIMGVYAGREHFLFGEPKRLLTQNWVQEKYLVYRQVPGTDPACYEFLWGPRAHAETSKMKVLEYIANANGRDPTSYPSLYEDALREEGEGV
The assay is described as follows: AlphaScreen or HTRF; TR-FRET competition: unlabelled peptide titrated against 200 nM FAM-PCF11_4, 5 nM Tb-anti-GST and 5 nM GST-MAGE-A11 MHD; 50 mM Tris pH 7.5, 20 mM MgCl2, 0.1 mg/ml BSA, 1 mM DTT; room temperature (~25 °C), 90 min. The settings on record: both partners purified.

Assay [3] concerns the target T2, GST-MAGE-A11 MHD (human MAGE-A11 MHD …). As to the kind of experiment: FRET.

In the case of `CC(C)C[C@H](NC(=O)[C@H](CC(C)C)NC(=O)[C@H](CCC(=O)O)NC(=O)[C@H](CCCNC(=N)N)NC(=O)[C@H](CCCCN)NC(=O)[C@H](CO)NC(=O)[C@H](C)NC(=O)[C@H](CC(C)C)NC(=O)[C@@H](NC(=O)[C@H](CC(C)C)NC(=O)[C@H](CCC(=O)O)NC(=O)[C@H](CCCCN)NC(=O)[C@@H]1CCCN1)[C@@H](C)O)C(=O)N[C@@H](CCC(N)=O)C(=O)N[C@@H](CCCCN)C(=O)O` [PCF11_1] (H-PKELTLASKRELLQK-OH; N-terminus assumed), the IC50 at GST-MAGE-A11 MHD is > 50 µM.
As for `CC[C@H](C)[C@H](NC(=O)[C@H](CCC(=O)O)NC(=O)CNC(=O)[C@H](CO)NC(=O)[C@H](C)NC(=O)[C@H](CC(C)C)NC(=O)[C@H](CCCNC(=N)N)NC(=O)[C@H](CCC(=O)O)NC(=O)[C@H](CO)NC(=O)[C@@H](NC(=O)[C@H](CCCCN)NC(=O)[C@H](CCC(N)=O)NC(=O)[C@H](CC(C)C)NC(=O)[C@@H](N)CC(C)C)[C@@H](C)O)C(=O)N[C@H](C(=O)O)[C@@H](C)O` [PCF11_2] (H-LLQKTSERLASGEIT-OH; N-terminus assumed), the IC50 on GST-MAGE-A11 MHD was > 50 µM.
The same measure, in the same setting: in the case of `CC[C@H](C)[C@H](NC(=O)[C@H](CCC(N)=O)NC(=O)[C@H](Cc1c[nH]cn1)NC(=O)[C@@H](NC(=O)[C@@H](NC(=O)[C@@H](NC(=O)[C@H](CC(C)C)NC(=O)[C@H](Cc1ccccc1)NC(=O)[C@H](CC(=O)O)NC(=O)[C@H](CC(=O)O)NC(=O)[C@H](CCC(N)=O)NC(=O)[C@@H](NC(=O)[C@@H](NC(=O)[C@H](CCC(=O)O)NC(=O)CN)[C@@H](C)CC)[C@@H](C)O)C(C)C)C(C)C)C(C)C)C(=O)O` [PCF11_3] (H-GEITQDDFLVVVHQI-OH; N-terminus assumed) it was > 50 µM; in that of `CC[C@H](C)[C@H](N)C(=O)N[C@H](C(=O)N[C@@H](CCC(N)=O)C(=O)N[C@@H](CC(=O)O)C(=O)N[C@@H](CC(=O)O)C(=O)N[C@@H](Cc1ccccc1)C(=O)N[C@@H](CC(C)C)C(=O)N[C@H](C(=O)N[C@H](C(=O)N[C@H](C(=O)N[C@@H](Cc1c[nH]cn1)C(=O)N[C@@H](CCC(N)=O)C(=O)N[C@H](C(=O)N[C@@H](CCCNC(=N)N)C(=O)N[C@@H](CCC(N)=O)C(=O)N[C@@H](CC(C)C)C(=O)N[C@@H](Cc1ccccc1)C(=O)N[C@@H](CCC(N)=O)C(=O)N[C@@H](Cc1ccc(O)cc1)C(=O)N[C@@H](CCC(N)=O)C(=O)N[C@@H](CCC(=O)O)C(=O)NCC(=O)N[C@H](C(=O)N[C@@H](CCCNC(=N)N)C(=O)N[C@@H](CCC(=O)O)C(=O)O)C(C)C)[C@@H](C)CC)C(C)C)C(C)C)C(C)C)[C@@H](C)O` [PCF11_4] (H-ITQDDFLVVVHQIRQLFQYQEGVRE-OH; N-terminus assumed), 0.059 µM.
On the same count and under the same terms, in the case of `CC[C@H](C)[C@H](NC(=O)[C@H](CCC(N)=O)NC(=O)[C@H](Cc1c[nH]cn1)NC(=O)[C@@H](NC(=O)[C@@H](NC(=O)[C@@H](NC(=O)[C@H](CC(C)C)NC(=O)[C@H](Cc1ccccc1)NC(=O)[C@H](CC(=O)O)NC(=O)[C@H](CC(=O)O)NC(=O)[C@@H](N)CCC(N)=O)C(C)C)C(C)C)C(C)C)C(=O)N[C@@H](CCCNC(=N)N)C(=O)N[C@@H](CCC(N)=O)C(=O)N[C@@H](CC(C)C)C(=O)N[C@@H](Cc1ccccc1)C(=O)N[C@@H](CCC(N)=O)C(=O)N[C@@H](Cc1ccc(O)cc1)C(=O)N[C@@H](CCC(N)=O)C(=O)N[C@@H](CCC(=O)O)C(=O)NCC(=O)O` [PCF11_5] (H-QDDFLVVVHQIRQLFQYQEG-OH; N-terminus assumed) it was 0.077 µM; in that of `CC[C@H](C)[C@H](NC(=O)[C@H](CCC(N)=O)NC(=O)[C@H](Cc1c[nH]cn1)NC(=O)[C@@H](N)C(C)C)C(=O)N[C@@H](CCCNC(=N)N)C(=O)N[C@@H](CCC(N)=O)C(=O)N[C@@H](CC(C)C)C(=O)N[C@@H](Cc1ccccc1)C(=O)N[C@@H](CCC(N)=O)C(=O)N[C@@H](Cc1ccc(O)cc1)C(=O)N[C@@H](CCC(N)=O)C(=O)N[C@@H](CCC(=O)O)C(=O)NCC(=O)N[C@H](C(=O)N[C@@H](CCCNC(=N)N)C(=O)O)C(C)C` [PCF11_7] (H-VHQIRQLFQYQEGVR-OH; N-terminus assumed), > 50 µM; in that of `CC[C@H](C)[C@H](NC(=O)[C@H](CCC(N)=O)NC(=O)[C@H](Cc1c[nH]cn1)NC(=O)[C@@H](N)C(C)C)C(=O)N[C@@H](CCCNC(=N)N)C(=O)N[C@@H](CCC(N)=O)C(=O)N[C@@H](CC(C)C)C(=O)N[C@@H](Cc1ccccc1)C(=O)N[C@@H](CCC(N)=O)C(=O)N[C@@H](Cc1ccc(O)cc1)C(=O)N[C@@H](CCC(N)=O)C(=O)N[C@@H](CCC(=O)O)C(=O)NCC(=O)N[C@H](C(=O)N[C@@H](CCCNC(=N)N)C(=O)N[C@@H](CCC(=O)O)C(=O)N[C@@H](CCC(=O)O)C(=O)N[C@@H](CCC(N)=O)C(=O)N[C@@H](CCCNC(=N)N)C(=O)N[C@@H](CO)C(=O)O)C(C)C` [PCF11_8] (H-VHQIRQLFQYQEGVREEQRS-OH; N-terminus assumed), > 50 µM.
ALVVVHQIRQLFQYQ (same inferred limits as m7) [PCF11_6 peptide F682A] gave an IC50 in assay [1] of 570 nM.

B1: PCF11 peptide (FLVVVHQIRQLF*Q) containing 4-cyano-phenylalanine at position 12 (peptide)
peptide: FLVVVHQIRQL[Phe(4-CN)]Q
notes: PCF11 degron, human; the phenylalanine at position 12 (F693) is 4-cyano-phenylalanine; also called 4-cyano-phenylalanine variant; source: synthetic peptide
In assay [2], B1 displayed an IC50 of 663 nM.

B2: PCF11 peptide (FLVVVHQIRQLF*Q) containing 3-methyl-phenylalanine at position 12 (peptide)
peptide: FLVVVHQIRQL[Phe(3-Me)]Q
notes: PCF11 degron, human; the phenylalanine at position 12 (F693) is 3-methyl-phenylalanine; also called 3-methyl-phenylalanine variant; source: synthetic peptide
As for B2, in assay [2], the IC50 was determined as 1.7 nM.
In turn, FLVVVHQIAQLFQYQ [PCF11_6 peptide R690A] returned an IC50 in assay [1] of 15600 nM.
FLVVVHQIRQAFQYQ [PCF11_6 peptide L692A] had an IC50 in assay [1] of 540 nM.

B3: PCF11 peptide (FLVVVHQIRQLFQ) containing phenylalanine at position 12 (peptide)
peptide: FLVVVHQIRQLFQ
notes: PCF11 degron, human; position +1 is F682 and position +12 is F693; also called model 13 amino acid PCF11 peptide degron; natural PCF11 degron peptide; source: synthetic peptide
For B3, the IC50 in assay [3] was 60.4 nM. Also, the binding result in assay [2] is given as “binds”.
In assay [1], FLVVVHQIRQLAQYQ [PCF11_6 peptide F693A] showed a half-maximal inhibitory concentration (IC50) of 2140 nM.

B4: PCF11_6 peptide (peptide)
chain: FLVVVHQIRQLFQYQ
modifications: exact ends are only in Fig. 1b; 682-696 is inferred from 'three overlapping peptides centered on PCF11 amino acids 682-696' (the later 13-residue model peptide is 682-694)
As to B4, in assay [1], the IC50 is 70 nM and 65 nM.
FLVVVHQARQLFQYQ [PCF11_6 peptide I689A] showed an IC50 in assay [1] of 1020 nM.

In general, IC50 refers to the point on the concentration scale where inhibition reaches its midpoint.
